How the values were obtained:
purified protein [1] = substrate: Nc1ncnc2c1ncn2[C@@H]1O[C@H](COP(=O)(O)OP(=O)(O)OP(=O)(O)O)[C@@H](O)[C@H]1O; assay: purified protein; type: biochemical, Homo sapiens; conditions: Tris-HCl pH 8.0, MgCl2, 37 °C; for K0.5: half maximal estimate, biphasic response, ATPS + APSK combined activity (two ATP sites)
purified protein [2] = substrate: O=S(=O)(O)O; assay: purified protein; type: biochemical, Homo sapiens; conditions: fixed ATP, Tris-HCl pH 8.0, MgCl2, 37 °C, labelled compound

| Protein | Km (purified protein [1]; fixed sulfate, ATP sulfurylase activity) | Km (purified protein [2]; ATP sulfurylase activity) | K0.5 (purified protein [1]) | Km (purified protein [2]; ATPS + APSK combined activity) |
| --- | --- | --- | --- | --- |
| COOH-terminal (aa 220-623) ATPS domain of hPAPSS1 (Homo sapiens) (protein, C-terminal ATP sulfurylase domain with linker, residues 220-623, APS kinase domain deleted; recombinant, purified) LQERDIVPVDASYEVKELYVPENKLHLAKTDAETLPALKINKVDMQWVQVLAEGWATPLNGFMREREYLQCLHFDCLLDGGVINLSVPIVLTATHEDKERLDGCTAFALMYEGRRVAILRNPEFFEHRKEERCARQWGTTCKNHPYIKMVMEQGDWLIGGDLQVLDRVYWNDGLDQYRLTPTELKQKFKDMNADAVFAFQLRNPVHNGHALLMQDTHKQLLERGYRRPVLLLHPLGGWTKDDDVPLMWRMKQHAAVLEEGVLNPETTVVAIFPSPMMYAGPTEVQWHCRARMVAGANFYIVGRDPAGMPHPETGKDLYEPSHGAKVLTMAPGLITLEIVPFRVAAYNKKKKRMDYYDSEHHEDFEFISGTRMRKLAREGQKPPEGFMAPKAWTVLTEYYKSLEK | 2.2 mM | 0.53 mM |  |  |
| hPAPSS1 (full length, residues 1-623) (Homo sapiens) (protein, full length 1-623 (APSK + ATPS domains); E. coli BL21(DE3) pLys; Ni column and gel filtration) MEIPGSLCKKVKLSNNAQNWGMQRATNVTYQAHHVSRNKRGQVVGTRGGFRGCTVWLTGLSGAGKTTVSMALEEYLVCHGIPCYTLDGDNIRQGLNKNLGFSPEDREENVRRIAEVAKLFADAGLVCITSFISPYTQDRNNARQIHEGASLPFFEVFVDAPLHVCEQRDVKGLYKKARAGEIKGFTGIDSEYEKPEAPELVLKTDSCDVNDCVQQVVELLQERDIVPVDASYEVKELYVPENKLHLAKTDAETLPALKINKVDMQWVQVLAEGWATPLNGFMREREYLQCLHFDCLLDGGVINLSVPIVLTATHEDKERLDGCTAFALMYEGRRVAILRNPEFFEHRKEERCARQWGTTCKNHPYIKMVMEQGDWLIGGDLQVLDRVYWNDGLDQYRLTPTELKQKFKDMNADAVFAFQLRNPVHNGHALLMQDTHKQLLERGYRRPVLLLHPLGGWTKDDDVPLMWRMKQHAAVLEEGVLNPETTVVAIFPSPMMYAGPTEVQWHCRARMVAGANFYIVGRDPAGMPHPETGKDLYEPSHGAKVLTMAPGLITLEIVPFRVAAYNKKKKRMDYYDSEHHEDFEFISGTRMRKLAREGQKPPEGFMAPKAWTVLTEYYKSLEK |  |  | 4.3 mM | 0.33 mM |
| hPAPSS1 (full length, residues 1-623) (Homo sapiens; N426K) (protein, full length 1-623 (APSK + ATPS domains); E. coli BL21(DE3) pLys; Ni column and gel filtration) MEIPGSLCKKVKLSNNAQNWGMQRATNVTYQAHHVSRNKRGQVVGTRGGFRGCTVWLTGLSGAGKTTVSMALEEYLVCHGIPCYTLDGDNIRQGLNKNLGFSPEDREENVRRIAEVAKLFADAGLVCITSFISPYTQDRNNARQIHEGASLPFFEVFVDAPLHVCEQRDVKGLYKKARAGEIKGFTGIDSEYEKPEAPELVLKTDSCDVNDCVQQVVELLQERDIVPVDASYEVKELYVPENKLHLAKTDAETLPALKINKVDMQWVQVLAEGWATPLNGFMREREYLQCLHFDCLLDGGVINLSVPIVLTATHEDKERLDGCTAFALMYEGRRVAILRNPEFFEHRKEERCARQWGTTCKNHPYIKMVMEQGDWLIGGDLQVLDRVYWNDGLDQYRLTPTELKQKFKDMNADAVFAFQLRNPVHKGHALLMQDTHKQLLERGYRRPVLLLHPLGGWTKDDDVPLMWRMKQHAAVLEEGVLNPETTVVAIFPSPMMYAGPTEVQWHCRARMVAGANFYIVGRDPAGMPHPETGKDLYEPSHGAKVLTMAPGLITLEIVPFRVAAYNKKKKRMDYYDSEHHEDFEFISGTRMRKLAREGQKPPEGFMAPKAWTVLTEYYKSLEK |  |  | 3.7 mM | 0.44 mM |
